Key:
Assay in all cases: coupled spectrophotometric assay
Format in all cases: biochemical, Aquifex aeolicus
[1] = substrate: Nc1ncnc2c1ncn2[C@@H]1O[C@H](COP(=O)(O)OP(=O)(O)O)[C@@H](O)[C@H]1O; conditions: Mg-ADP/ADP
[2] = substrate: Nc1ncnc2c1ncn2[C@@H]1O[C@H](COP(=O)(O)OP(=O)(O)OP(=O)(O)O)[C@@H](O)[C@H]1O
[3] = substrate: Nc1ncnc2c1ncn2[C@@H]1O[C@H](COP(=O)(O)O)[C@@H](O)[C@H]1O

B1: AdK 42-144 (Aquifex aeolicus VF5; INS144C/INS42C) (protein)
chain: MILVFLGPPGAGKGTQAKRLAKEKGFVHISTGDILREAVQKGCTPLGKKAKEYMERGELVPDDLIIALIEEVFPKHGNVIFDGFPRTVKQAEALDEMLEKKGLKVDHVLLFEVPDEVVIERLSGRRINPETGEVYHVKYNPPPPGCVKVIQREDDKPEVIKKRLEVYREQTAPLIEYYKKKGILRIIDASKPVEEVYRQVLEVIGDGN
notes: full length, Cys inserted between 42/43 and 144/145; N-terminal spacer …, C-terminal spacer and His6 kept; synthetic gene in pET11a, E. coli BL21(DE3); DNA handles on Cys in trap assay
- Km [1]: 360 ± 80 µM
- Km [2]: 41 ± 11 µM
- Km [3]: 10 µM
